Test results reported in US20090221474A1.

Tests used:
[1] = target: bovine HD1 (bovine thymus trapoxin binding proteins p46-p49) (bovine) (UniProt Q32PJ8); test: depletion of bovine thymus Mono Q fractions by the K-trap affinity matrix
[2] = target: bovine HD1 (bovine thymus trapoxin binding proteins p46-p49) (bovine) (UniProt Q32PJ8); test: cell-based or functional assay

bovine HD1 (bovine thymus trapoxin binding proteins p46-p49) (bovine), sequence (Q32PJ8 whole entry): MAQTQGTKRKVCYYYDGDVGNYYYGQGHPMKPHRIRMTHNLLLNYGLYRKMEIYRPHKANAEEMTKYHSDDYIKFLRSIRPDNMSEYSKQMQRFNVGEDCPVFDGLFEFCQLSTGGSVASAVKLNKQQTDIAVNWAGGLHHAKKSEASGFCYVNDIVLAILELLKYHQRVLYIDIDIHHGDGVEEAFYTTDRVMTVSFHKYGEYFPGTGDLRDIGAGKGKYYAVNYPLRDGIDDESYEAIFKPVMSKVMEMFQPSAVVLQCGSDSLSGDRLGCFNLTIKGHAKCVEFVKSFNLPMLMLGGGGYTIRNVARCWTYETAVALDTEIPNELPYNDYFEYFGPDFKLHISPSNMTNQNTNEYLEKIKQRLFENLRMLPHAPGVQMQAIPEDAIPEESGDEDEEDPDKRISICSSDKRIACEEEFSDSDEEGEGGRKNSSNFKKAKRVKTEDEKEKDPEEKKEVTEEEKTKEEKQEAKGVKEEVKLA

Row | Substance | percent of trapoxin binding and histone deacetylase activity depleted [1] | inhibition of histone deacetylase activity [2]
1 | K-trap affinity matrix (peptide) | 90% | 
2 | trapoxin (peptide) |  | 20 nM
